From patent US5876971A, “Thrombin inhibitor from the saliva of protostomia” (Schering Aktiengesellschaft, priority 1992, dated 1999) come the findings set out here.

Experiment [1] has as its target thrombin.
The target in experiment [2] is thrombin. This is another data set of the same source.
For experiment [3], the target named is thrombin. The source holds these as a separate data set.
The target in experiment [4] is thrombin. The source holds these as a separate data set.
Experiment [5] deals with thrombin. The experiment can be described thus: Inhibition of the thrombin activity in the amidolytic test (substrate S2238). It is filed as biochemical. The note with it: inhibitor 6 nmol/l; thrombin 0.03 IU. As for the experimental part: Inhibition of the thrombin activity in the amidolytic test
In a microtiterplate, 80 μl of 100 mmol/l of tris/HCl, pH 7.4; 150 mmol/l of NaCl and 0.03 IU ([…]) of thrombin and 100 μl of a diluted solution of the protein of the invention (32-630 ng) are incubated for 10 minutes at 37° C. and then mixed with 100 μl (50 nmol) of substrate S2238 (Kabi Vitrum). After an incubation of 30 minutes at 37° C., the absorption is measured at 405 nm. 630 ng (117 nmol/l) inhibits the activity of the thrombin to approximately 50%. […] (See FIG. 2)

In experiment [6] the test system is thrombin. Nature of the experiment: Inhibition of the thrombin activity in the clotting test (fibrinogen cleavage). In kind it is biochemical. As for the experimental part:
Inhibition of the thrombin activity in the clotting test
In a microtiterplate, which is coated with bovine serum albumin (0.1% in 0.1 mol/l of NaHCO3, pH 9.5), 80 μl of 20 mmol/l of HEPES, pH 7.4; […] of NaCl; 20 μl of 20 mmol/l of CaCl2; 100 μl of a diluted solution of the protein of the invention (5-50 ng) and 20 μl of thrombin (0.03 IU=0.03 International Units) are pipetted. After an incubation of 2 minutes at 37° C., 100 μl of fibrinogen (5 mg/ml) is added and incubated for 40 minutes at 37° C. Then, the absorption is measured at 405 nm. […] (See FIG. 3)

“thrombin inhibitor purified from the saliva of Triatoma pallidipennis (protein of the invention, purified according to Example 1)” came in with an inhibition of thrombin-induced blood platelet aggregation (aggregometer) in the experiment with thrombin [1] of 15 ng/mL. In the experiment with thrombin [2], this molecule returned a lengthening of the thrombin time (plasma clotting after adding thrombin) of 35 nmol/L. This molecule came in with an inhibition of the thrombin activity in the amidolytic test (substrate S2238, absorption at 405 nm); concentration giving approximately 50% inhibition in the experiment with thrombin [3] of 117 nmol/L. This molecule also gave an inhibition of the thrombin activity in the clotting test (fibrinogen cleavage, absorption at 405 nm) in the experiment with thrombin [4] of 8 nmol/L.

Turning to hirudin, in the experiment on thrombin [5], the “inhibition of thrombin activity in the amidolytic test” value is on record as 85%. The “inhibition of fibrinogen cleavage (clotting)” value in the experiment with thrombin [6] (inhibitor 8 nmol/l (45 ng), thrombin 0.03 IU (1.27 nmol/l), absorption at 405 nm) is given as “complete inhibition”.

B1: purified fraction: recombinant mature protein (Ti28=seq. id. no. 2) produced in E. coli, purified by ion exchange and thrombin affinity chromatography (protein)
chain: AEGDDCSLEKAMGDFKPEEFFNGTWYLAHGPDVTSPAVCQKFTTSGSKGFTQIVEIGYNKFESNVKFQCNQVDNKNDEQYSFKCKGSDNTEFEADFTFISVSYDNFALVCRSIIFTSQPKEDDYLVFERTKSDTDPDANEIC
Regarding B1, the “inhibition of thrombin activity in the clotting test (qualitative)” value in the experiment with thrombin [6] (material from transformed E. coli, concentration not given) is given as “same inhibitory activity as the saliva protein”.
